Reference: article PMC4303305 (Biochemistry, 2014)
Changes are numbered by the printed parent chain. Names and notes keep the numbering of the source. Read-outs that look alike come from different tables or passages of the source.

Columns and labels:
SEC [1] = molecular target: the molecule itself; assay: SEC
SEC [2] = molecular target: the molecule itself; assay: SEC; remark: listed apart in the source

B1: NP1(K1A) (natural protein, Rhodnius prolixus, UniProt Q26239 24-207, looked up)
chain: ACTKNALAQTGFNKDKYFNGDVWYVTDYLDLEPDDVPKRYCAALAAGTASGKLKEALYHYDPKTQDTFYDVSELQEESPGKYTANFKKVEKNGNVKVDVTSGNYYTFTVMYADDSSALIHTCLHKGNKDLGDLYAVLNRNKDTNAGDKVKGAVTAASLKFSDFISTKDNKCEYDNVSLKSLLTK
stoichiometry N (SEC [1]): 2

B2: native N-terminal NP1 with C-terminal His6 tag (natural protein, Rhodnius prolixus, UniProt Q26239 24-207, looked up)
chain: B1 chain with A1K
stoichiometry N (SEC [1]): 2

B3: NP4(K38Q/R39Q/K125Q) (natural protein, Rhodnius prolixus, UniProt Q94734 22-205, looked up)
chain: ACTKNAIAQTGFNKDKYFNGDVWYVTDYLDLEPDDVPQQYCAALAAGTASGKLKEALYHYDPKTQDTFYDVSELQVESLGKYTANFKKVDKNGNVKVAVTAGNYYTFTVMYADDSSALIHTCLHQGNKDLGDLYAVLNRNKDAAAGDKVKSAVSAATLEFSKFISTKENNCAYDNDSLKSLLTK
stoichiometry N (SEC [2]): 2
